{"source": "paper PMC7596348", "about": "“The Iron-Sulfur Flavoprotein DsrL as NAD(P)H:Acceptor Oxidoreductase in Oxidative and Reductive Dissimilatory Sulfur Metabolism” (Frontiers in Microbiology, 2020)", "proteins": {"B1": {"name": "CtDsrL-1B (Chlorobaculum tepidum TLS) (protein)", "chain": "MNAESNPILDFATEYVYPAFSELTGTDKIVAFGDHSHKCPIYVPQTPPCTAECPAGEDIRAINRFLNGTDPSDDPLKSAWETATDTNPFPAVMGRICPHPCQSKCNRGVHDESVAINAVEQVLGNYGIEHNLKLKGPGADTGKRVAIIGGGPAGLSAAYQLRRKGHAVTIYDANEKLGGMVLYGIMGYRVDRKVLEAEIGRIIELGVETKMGVTIGKDITLEQLEAEYDAVFIAVGAQKGRALPVPGFEGTPGATNAIDFLKSYEVLGDDIPVGKHVVVIGDGNVAMDVARLALRLGSQATIISGVPREEMACFENEFDDAKNEGTTMHFLTGTVEVLGGASGVTGLRCTKMVKKEKGEEGWNSPIPFLRYKSNGESFEIEADMVVAAIGQATDLSGLGSAASGPWLKVDRNFRIPGREKLFGGGDALKVDLITTAVGHGRKAAYAIDAFLKGEPMPEEPYREITKPHKQDLLYFLHTPQAKRTSIKPEVVVGNHDELLEALTPEQAITESKRCMSCGFCFDCKQCVSFCPQEAITRFRDNPAGEKVYTDYTKCVGCHLCSLVCPCGYIQMGMGDGL", "notes": "full length (577 residues), C-terminal Strep-tag (… from primer), E. coli BL21(DE3) ΔiscR; primer-coded N-term MNAESNP, C-term GMGDGL"}, "B2": {"name": "DaDsrL-2 (Desulfurella amilsii) (protein)", "chain": "MAVVKVKKSIKSFSKPSGTEYSSDRPIYVEKRPPCSDTCPNGEQVREFLQYIAQAQDYGRTYEEALEGAFYIIAQTNSMPATTGRICPHPCESRCNRKDKDSAVNINASEMFIGDFAVQNKLPLKKLDETYDAKVAVIGSGPSGLSCAYHLARRGVKVTIFEKEEKPGGLLYYGIPNFRLPKEIVSAEIQRIVDLGVDIKYGKAVGKDIGIEDLKKEFDCIYVATGAYKPEKPNLENIDNIKGVYSGLEFLYHFAKGERIDIGKDVVVVGADTAADAAMISKRWGANVTFAYRRTVPDKETFDKKASREAIDAYEEGITFQFATVPVELVSENGKLTGVKFQKIKVGAKDERGHAAQVENIGEPFLVKADAFIYSVGQKPDYSGLEKLLGQSEGFVKIKDNYQVEGQDKVFAGGDVVGPRLMYVTTAIGHGFAAAVNMIEYLTGKKVIEKDTRKVIESDKMHLDLYEAKPRHERKLRDPIERIKDFEPFMNGLSMEEFIEEAKRCMSCGLCFDCGNCFTYCSHSGVKKLPKGQHYEFHLETCDGCMKCFENCPCGYIEKM", "notes": "full length, C-terminal Strep-tag (… from primer), E. coli BL21(DE3) ΔiscR; primer-coded N-term MAVVKVK, C-term PCGYIEKM; contains YRR motif"}, "B3": {"name": "AvDsrL-1A (Allochromatium vinosum DSM 180) (protein)", "chain": "MATSSDEMKMKPTWRRFEDGEHVWDNLTDKIFNQDRSHKCPTYVHKTPPCQGSCPSGEDIRGWLQIVRGMEKPPQGMDWQEYAFRRSTDANPFPAMMGRVCPAPCQDGCNRNELEDFVGINSVEQFIGDTAIANGYTFEAPELDTGKRIAIVGGGPAGLAAAYQLRRKGHSCTIFEANDGLGGMFRFGIPGYRVPRDKLDAEIQRILDMGRVEVRLKTRIGTDVTVEQLEKDYDAILWAIGCQSGRGLPVPGWEGTPNCVTGVAFLKAFNEGRMKVTAGKVVCVGGGDTSIDVVSVARRLGHVNKSNPNELPETVIRDGYVAHDAASAAAAQGAEVTLTSLFTRDKMTASEHEVDDATREGVTILDGVMPVEVIKDANGRAIGLKVADCTMTDGRPTPVEGTERVLEADLIVSAIGQGGDLSGLEQLDNGRGLMDSDKFYQVPGKAGHFVAGDIIRPHLLTTAIGQAWIAADSIDAYVMQAEHKRRPKVDVHHFNLLDKLTEAHLAPESFVAGQAGDMRGTSDANYAIHNYEDRSGAEVIPHEELFLGHFNYVPRNLRKEEVPSADEVLGHFHERVIGLTEPEAIDEAKRCMSCGLCFECDNCVIFCPQDAVFRVDKGSRTTGRYVDTDYAKCIGCHICADVCPTGYIKMGLGE", "notes": "full length, C-terminal Strep-tag (… from primer), E. coli BL21(DE3) ΔiscR; primer-coded N-term MATSS, C-term IKMGLGE; FAD and four [4Fe-4S] per monomer; homodimer"}}, "test_in_all_cases": "purified protein", "key": {"[1]": {"substrate": "NC(=O)C1=CN([C@@H]2O[C@H](COP(=O)(O)OP(=O)(O)OC[C@H]3O[C@@H](n4cnc5c(N)ncnc54)[C@H](O)[C@@H]3O)[C@@H](O)[C@H]2O)C=CC1", "format": "biochemical, Chlorobaculum tepidum", "settings": "300 μM MTT, 50 mM potassium phosphate pH 8.0, 40°C"}, "[2]": {"substrate": "NC(=O)c1ccc[n+]([C@@H]2O[C@H](COP(=O)(O)OP(=O)(O)OC[C@H]3O[C@@H](n4cnc5c(N)ncnc54)[C@H](O)[C@@H]3O)[C@@H](O)[C@H]2O)c1", "format": "biochemical, Chlorobaculum tepidum", "settings": "reduced methylviologen as donor, pH 8.0, 40°C"}, "[3]": {"substrate": "NC(=O)c1ccc[n+]([C@@H]2O[C@H](COP(=O)(O)OP(=O)(O)OC[C@H]3O[C@@H](n4cnc5c(N)ncnc54)[C@H](OP(=O)(O)O)[C@@H]3O)[C@@H](O)[C@H]2O)c1", "format": "biochemical, Desulfurella amilsii", "settings": "reduced methylviologen as donor, pH 6.5, 45°C"}, "[4]": {"substrate": "NC(=O)C1=CN([C@@H]2O[C@H](COP(=O)(O)OP(=O)(O)OC[C@H]3O[C@@H](n4cnc5c(N)ncnc54)[C@H](OP(=O)(O)O)[C@@H]3O)[C@@H](O)[C@H]2O)C=CC1", "format": "biochemical, Desulfurella amilsii", "settings": "300 μM MTT, 50 mM potassium phosphate pH 6.5, 45°C"}, "[5]": {"substrate": "NC(=O)C1=CN([C@@H]2O[C@H](COP(=O)(O)OP(=O)(O)OC[C@H]3O[C@@H](n4cnc5c(N)ncnc54)[C@H](O)[C@@H]3O)[C@@H](O)[C@H]2O)C=CC1", "format": "biochemical, Allochromatium vinosum", "settings": "300 μM MTT, 50 mM potassium phosphate pH 7.0, 30°C"}, "[6]": {"substrate": "NC(=O)c1ccc[n+]([C@@H]2O[C@H](COP(=O)(O)OP(=O)(O)OC[C@H]3O[C@@H](n4cnc5c(N)ncnc54)[C@H](OP(=O)(O)O)[C@@H]3O)[C@@H](O)[C@H]2O)c1", "format": "biochemical, Allochromatium vinosum", "settings": "reduced methylviologen as donor, pH 7.0, 30°C"}, "[7]": {"substrate": "NC(=O)c1ccc[n+]([C@@H]2O[C@H](COP(=O)(O)OP(=O)(O)OC[C@H]3O[C@@H](n4cnc5c(N)ncnc54)[C@H](O)[C@@H]3O)[C@@H](O)[C@H]2O)c1", "format": "biochemical, Allochromatium vinosum", "settings": "reduced methylviologen as donor, pH 7.0, 30°C"}, "[8]": {"substrate": "NC(=O)C1=CN([C@@H]2O[C@H](COP(=O)(O)OP(=O)(O)OC[C@H]3O[C@@H](n4cnc5c(N)ncnc54)[C@H](OP(=O)(O)O)[C@@H]3O)[C@@H](O)[C@H]2O)C=CC1", "format": "biochemical, Allochromatium vinosum", "settings": "300 μM MTT, 50 mM potassium phosphate pH 7.0, 30°C"}}}
{"protein": "B1", "values": [{"measurement": "Km", "setting": "[1]", "result": "267.5 ± 20.5", "unit": "µM"}, {"measurement": "Vmax", "setting": "[1]", "result": 436, "unit": "µmol/min/mg"}, {"measurement": "kcat", "setting": "[1]", "result": 460, "unit": "s⁻¹"}, {"measurement": "kcat/Km", "setting": "[1]", "result": "1.72e+06", "unit": "M⁻¹ s⁻¹"}, {"measurement": "Km", "setting": "[2]", "result": "95.2 ± 9.9", "unit": "µM"}, {"measurement": "Vmax", "setting": "[2]", "result": 366, "unit": "µmol/min/mg"}, {"measurement": "kcat", "setting": "[2]", "result": 387, "unit": "s⁻¹"}, {"measurement": "kcat/Km", "setting": "[2]", "result": "4.06e+06", "unit": "M⁻¹ s⁻¹"}]}
{"protein": "B2", "values": [{"measurement": "Km", "setting": "[3]", "result": "22.0 ± 1.9", "unit": "µM"}, {"measurement": "Vmax", "setting": "[3]", "result": 88.8, "unit": "µmol/min/mg"}, {"measurement": "kcat", "setting": "[3]", "result": 94.3, "unit": "s⁻¹"}, {"measurement": "kcat/Km", "setting": "[3]", "result": "4.2e+06", "unit": "M⁻¹ s⁻¹"}, {"measurement": "Km", "setting": "[4]", "result": "124.5 ± 10.5", "unit": "µM"}, {"measurement": "Vmax", "setting": "[4]", "result": 103, "unit": "µmol/min/mg"}, {"measurement": "kcat", "setting": "[4]", "result": 110, "unit": "s⁻¹"}, {"measurement": "kcat/Km", "setting": "[4]", "result": 870000, "unit": "M⁻¹ s⁻¹"}]}
{"protein": "B3", "values": [{"measurement": "Km", "setting": "[5]", "result": "86.7 ± 17.0", "unit": "µM"}, {"measurement": "Vmax", "setting": "[5]", "result": 11.2, "unit": "µmol/min/mg"}, {"measurement": "kcat", "setting": "[5]", "result": 13.5, "unit": "s⁻¹"}, {"measurement": "kcat/Km", "setting": "[5]", "result": 156000, "unit": "M⁻¹ s⁻¹"}, {"measurement": "Km", "setting": "[6]", "result": "2563.0 ± 272.1", "unit": "µM"}, {"measurement": "Vmax", "setting": "[6]", "result": 120, "unit": "µmol/min/mg"}, {"measurement": "kcat", "setting": "[6]", "result": 146, "unit": "s⁻¹"}, {"measurement": "kcat/Km", "setting": "[6]", "result": 57000, "unit": "M⁻¹ s⁻¹"}, {"measurement": "Km", "setting": "[7]", "result": "123.9 ± 10.3", "unit": "µM"}, {"measurement": "Vmax", "setting": "[7]", "result": 145, "unit": "µmol/min/mg"}, {"measurement": "kcat", "setting": "[7]", "result": 176, "unit": "s⁻¹"}, {"measurement": "kcat/Km", "setting": "[7]", "result": "1.42e+06", "unit": "M⁻¹ s⁻¹"}, {"measurement": "Km", "setting": "[8]", "result": "1667.0 ± 230.2", "unit": "µM"}, {"measurement": "Vmax", "setting": "[8]", "result": 4, "unit": "µmol/min/mg"}, {"measurement": "kcat", "setting": "[8]", "result": 4.9, "unit": "s⁻¹"}, {"measurement": "kcat/Km", "setting": "[8]", "result": 3000, "unit": "M⁻¹ s⁻¹"}]}
